{"source": "patent US20100047226A1", "about": "(published 2010)", "binders": {"B1": {"name": "ZaTa peptide (PKAc fragment flanking Thr-197) (peptide)", "peptide": "AKRVKGRTWTLCGTPEY"}}, "test_in_all_cases": "cell-based or functional assay", "key": {"AKT2 (active form)": {"molecular_target": "AKT2 (active form) (UniProt P31751 120-481, limits assumed)", "sequence (P31751 120-481 limits assumed)": "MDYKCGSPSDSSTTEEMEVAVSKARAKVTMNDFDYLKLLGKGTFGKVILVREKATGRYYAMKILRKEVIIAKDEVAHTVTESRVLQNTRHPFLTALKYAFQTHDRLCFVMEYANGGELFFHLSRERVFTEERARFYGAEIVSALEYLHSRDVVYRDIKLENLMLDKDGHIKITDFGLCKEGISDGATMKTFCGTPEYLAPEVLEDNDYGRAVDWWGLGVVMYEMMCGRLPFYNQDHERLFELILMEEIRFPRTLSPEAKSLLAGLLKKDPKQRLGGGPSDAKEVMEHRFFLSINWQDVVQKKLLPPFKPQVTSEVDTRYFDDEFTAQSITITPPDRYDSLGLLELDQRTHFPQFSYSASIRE"}, "PI3K[…] (active form)": {"molecular_target": "PI3K[…] (active form)"}, "SGK (active form)": {"molecular_target": "T1, SGK (active form) (UniProt O00141 60-431, limits assumed)", "T1 sequence (looked up)": "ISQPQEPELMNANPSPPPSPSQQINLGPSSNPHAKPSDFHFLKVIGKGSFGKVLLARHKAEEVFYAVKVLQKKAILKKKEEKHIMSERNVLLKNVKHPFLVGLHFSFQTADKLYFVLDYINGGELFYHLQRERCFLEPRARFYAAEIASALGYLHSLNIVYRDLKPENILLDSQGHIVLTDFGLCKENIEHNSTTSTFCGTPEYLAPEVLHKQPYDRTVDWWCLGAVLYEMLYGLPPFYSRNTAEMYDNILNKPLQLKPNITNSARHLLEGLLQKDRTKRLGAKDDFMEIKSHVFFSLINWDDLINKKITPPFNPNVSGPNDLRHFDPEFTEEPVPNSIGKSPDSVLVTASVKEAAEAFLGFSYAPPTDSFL"}, "PAK3 (active form)": {"molecular_target": "PAK3 (active form) (UniProt O75914 1-559, limits assumed)", "sequence (O75914 whole entry)": "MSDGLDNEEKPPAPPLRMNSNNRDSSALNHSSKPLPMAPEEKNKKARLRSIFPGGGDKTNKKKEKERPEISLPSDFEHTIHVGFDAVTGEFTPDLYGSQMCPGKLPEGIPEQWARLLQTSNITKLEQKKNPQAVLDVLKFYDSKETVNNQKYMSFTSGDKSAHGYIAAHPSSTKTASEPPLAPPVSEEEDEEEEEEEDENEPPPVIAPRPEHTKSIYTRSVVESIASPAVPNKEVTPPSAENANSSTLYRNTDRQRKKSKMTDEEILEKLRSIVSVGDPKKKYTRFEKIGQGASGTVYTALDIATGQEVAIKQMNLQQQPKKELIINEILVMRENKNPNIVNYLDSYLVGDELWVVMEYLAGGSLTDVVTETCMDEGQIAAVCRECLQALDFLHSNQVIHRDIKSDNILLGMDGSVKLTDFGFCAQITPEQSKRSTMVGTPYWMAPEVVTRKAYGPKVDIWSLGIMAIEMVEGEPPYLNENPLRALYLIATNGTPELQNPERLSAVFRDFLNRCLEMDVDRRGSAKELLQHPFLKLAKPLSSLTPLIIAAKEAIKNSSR"}, "Abl (active form)": {"molecular_target": "Abl (active form) (UniProt P00519 27-1130, limits assumed)", "sequence (P00519 27-1130 limits assumed)": "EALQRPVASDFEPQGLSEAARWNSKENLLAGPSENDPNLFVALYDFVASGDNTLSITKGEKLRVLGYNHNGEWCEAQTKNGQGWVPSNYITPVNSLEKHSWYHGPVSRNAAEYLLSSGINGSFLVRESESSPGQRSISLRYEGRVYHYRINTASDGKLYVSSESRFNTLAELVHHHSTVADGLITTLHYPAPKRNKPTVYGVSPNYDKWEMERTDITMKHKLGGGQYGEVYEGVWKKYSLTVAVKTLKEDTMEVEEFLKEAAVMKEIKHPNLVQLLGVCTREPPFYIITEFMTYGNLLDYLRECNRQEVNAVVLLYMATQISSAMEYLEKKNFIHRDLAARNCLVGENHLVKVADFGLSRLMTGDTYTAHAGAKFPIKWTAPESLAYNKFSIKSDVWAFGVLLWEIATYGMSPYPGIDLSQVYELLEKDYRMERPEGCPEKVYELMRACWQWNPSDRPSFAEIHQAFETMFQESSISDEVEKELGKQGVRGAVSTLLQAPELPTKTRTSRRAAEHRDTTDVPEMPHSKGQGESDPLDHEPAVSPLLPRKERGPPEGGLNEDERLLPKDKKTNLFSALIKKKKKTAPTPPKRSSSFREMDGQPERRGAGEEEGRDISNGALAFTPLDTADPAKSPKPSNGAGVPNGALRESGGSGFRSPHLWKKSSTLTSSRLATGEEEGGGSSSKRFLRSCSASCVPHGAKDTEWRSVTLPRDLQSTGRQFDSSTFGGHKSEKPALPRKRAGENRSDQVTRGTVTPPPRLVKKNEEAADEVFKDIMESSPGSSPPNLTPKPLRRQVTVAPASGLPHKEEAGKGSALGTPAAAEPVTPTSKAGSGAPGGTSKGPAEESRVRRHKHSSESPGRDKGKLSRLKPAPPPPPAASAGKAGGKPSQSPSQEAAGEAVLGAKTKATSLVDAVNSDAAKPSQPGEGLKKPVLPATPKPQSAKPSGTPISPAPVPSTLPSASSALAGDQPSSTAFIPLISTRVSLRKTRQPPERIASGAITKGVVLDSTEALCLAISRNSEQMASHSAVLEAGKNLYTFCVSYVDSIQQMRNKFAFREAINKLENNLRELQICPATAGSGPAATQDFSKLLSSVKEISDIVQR"}, "p70S6K (active form)": {"molecular_target": "p70S6K (active form) (UniProt P23443 1-421)", "sequence (P23443 1-421)": "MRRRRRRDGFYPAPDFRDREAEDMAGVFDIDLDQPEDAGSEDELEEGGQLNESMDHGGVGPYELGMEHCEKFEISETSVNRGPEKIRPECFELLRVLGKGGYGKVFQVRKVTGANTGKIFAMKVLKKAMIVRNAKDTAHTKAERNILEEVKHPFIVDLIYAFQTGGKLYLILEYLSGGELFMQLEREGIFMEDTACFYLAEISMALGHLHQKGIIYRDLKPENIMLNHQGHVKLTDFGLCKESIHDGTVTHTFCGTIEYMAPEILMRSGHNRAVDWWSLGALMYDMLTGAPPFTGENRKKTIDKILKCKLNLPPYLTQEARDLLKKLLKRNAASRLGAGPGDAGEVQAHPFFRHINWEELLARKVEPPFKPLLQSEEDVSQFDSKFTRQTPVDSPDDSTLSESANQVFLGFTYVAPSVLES"}, "TrkB (active form)": {"molecular_target": "TrkB (active form) (UniProt Q16620 526-822, limits assumed)", "sequence (Q16620 526-822 limits assumed)": "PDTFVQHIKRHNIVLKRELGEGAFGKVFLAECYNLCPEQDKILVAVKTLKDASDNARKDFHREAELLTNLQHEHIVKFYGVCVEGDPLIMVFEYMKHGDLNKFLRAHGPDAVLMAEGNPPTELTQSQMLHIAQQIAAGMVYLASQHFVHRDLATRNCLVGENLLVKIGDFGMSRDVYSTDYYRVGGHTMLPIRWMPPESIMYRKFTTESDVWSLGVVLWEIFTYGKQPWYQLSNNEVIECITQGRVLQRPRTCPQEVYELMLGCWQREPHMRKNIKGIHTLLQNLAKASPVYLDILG"}, "JAK3 (active form)": {"molecular_target": "JAK3 (active form) (UniProt P52333 781-1124, limits assumed)", "sequence (P52333 781-1124 limits assumed)": "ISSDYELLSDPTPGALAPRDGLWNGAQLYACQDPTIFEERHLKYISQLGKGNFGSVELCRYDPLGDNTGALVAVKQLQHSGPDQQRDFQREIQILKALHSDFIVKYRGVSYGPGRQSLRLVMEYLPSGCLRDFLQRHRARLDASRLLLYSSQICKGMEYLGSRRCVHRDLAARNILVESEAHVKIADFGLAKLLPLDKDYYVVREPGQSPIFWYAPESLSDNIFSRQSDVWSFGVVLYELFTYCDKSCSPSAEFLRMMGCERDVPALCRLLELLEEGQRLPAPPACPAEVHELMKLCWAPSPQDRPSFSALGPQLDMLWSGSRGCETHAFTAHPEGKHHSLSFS"}}, "data": [{"binder": "B1", "values": [{"measurement": "in vitro kinase assay at ten times the IC50 for AKT1", "setting": "AKT2 (active form)", "result": 63, "unit": "%"}, {"measurement": "in vitro kinase assay at ten times the IC50 for AKT1", "setting": "PI3K[…] (active form)", "result": 72, "unit": "%"}, {"measurement": "in vitro kinase assay at ten times the IC50 for AKT1", "setting": "SGK (active form)", "result": 73, "unit": "%"}, {"measurement": "in vitro kinase assay at ten times the IC50 for AKT1", "setting": "PAK3 (active form)", "result": 83, "unit": "%"}, {"measurement": "in vitro kinase assay at ten times the IC50 for AKT1", "setting": "Abl (active form)", "result": 42, "unit": "%"}, {"measurement": "in vitro kinase assay at ten times the IC50 for AKT1", "setting": "p70S6K (active form)", "result": 64, "unit": "%"}, {"measurement": "in vitro kinase assay at ten times the IC50 for AKT1", "setting": "TrkB (active form)", "result": 84, "unit": "%"}, {"measurement": "in vitro kinase assay at ten times the IC50 for AKT1", "setting": "JAK3 (active form)", "result": 79, "unit": "%"}]}]}
